From patent US20220177587A1, “METHODS AND USES OF VARIANT CD80 FUSION PROTEINS AND RELATED CONSTRUCTS” (Alpine Immune Sciences, Inc., priority 2018, published 2022)

Assays:
huCTLA4 = huCTLA4 (Homo sapiens, UniProt P16410); assay: Flow binding to CHO cells stably expressing CTLA4; design: huCTLA4 and huPD-L1, full-length mammalian surface expression constructs were generated; expressed in transfected cells; host or cells: CHO cells, lentiviral transduction, sorted to >98% purity; details: for CTLA4 MFI at 33.3 nM: CHO cells stably expressing CTLA4; for CTLA4 Fold change to WT CD80: MFI at 33.3 nM relative to CD80 WT IgV-Fc
Chain of huCTLA4 (P16410 36-223): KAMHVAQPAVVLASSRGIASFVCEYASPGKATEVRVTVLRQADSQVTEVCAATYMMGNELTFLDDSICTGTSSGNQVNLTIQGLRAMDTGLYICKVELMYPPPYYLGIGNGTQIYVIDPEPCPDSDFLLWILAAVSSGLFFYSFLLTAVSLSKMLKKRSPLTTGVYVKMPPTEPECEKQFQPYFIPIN
Description: (§1) Binding of selected immunomodulatory fusion proteins to cognate binding partners was assessed. […] Cells were sorted in a Bio-Rad S3 Cell Sorter (Bio-Rad Corp., USA) to >98% purity. Jurkat/IL2 reporter cells, which endogenously express CD28, were used to detect binding to CD28.
(§2) For staining and analysis by flow cytometry, 100,000 cells of appropriate transfected cells were plated in 96-well round bottom plates. Cells were spun down and resuspended in staining buffer (phosphate buffered saline (PBS), 1% bovine serum albumin (BSA), and 0.1% sodium azide) for 20 minutes to block non-specific binding. […] Primary staining was performed on ice for 45 minutes, before washing cells in staining buffer twice. Phycoerythrin (PE)-conjugated anti-human Fc (Jackson ImmunoResearch, USA) was diluted 1:150, added to cells and incubated another 30 minutes on ice. Cells were then washed twice with 150 μL/well stain buffer, fixed in 2% formaldehyde/PBS, and analyzed on Intellicyt flow cytometer (Intellicyt Corp., USA). PE Mean Fluorescence Intensity (MFI) was calculated for each cell type with FlowJo Version 10 software (FlowJo LLC, USA).
(§3) Binding assays were carried out to assess the specificity and affinity of multivalent proteins to cell-expressed CTLA-4, CD28, and PD-L1 counter structures.
(§4) The EC50 for binding also was determined.

CD28 [1] = target: T1, CD28 (Homo sapiens, UniProt P10747); assay: Flow binding to Jurkat/IL2 reporter cells (CD28); design: host or cells: Jurkat cells expressing an IL-2-luciferase reporter; details: for CD28 Fold change to WT CD80: MFI at 33.3 nM relative to CD80 WT IgV-Fc
Description: as §1, §2, §3, §4

huPD-L1 = huPD-L1 (Homo sapiens, UniProt Q9NZQ7); assay: Flow binding to CHO cells stably expressing PD-L1; design: huCTLA4 and huPD-L1, full-length mammalian surface expression constructs were generated; expressed in transfected cells; host or cells: CHO cells, lentiviral transduction, sorted to >98% purity; details: for PD-L1 MFI at 33.3 nM: CHO cells stably expressing PD-L1; for PD-L1 Fold change to WT CD80: MFI at 33.3 nM relative to CD80 WT IgV-Fc; for Ratio of PDL1:CD28: ratio of MFI at 33.3 nM
Chain of huPD-L1 (Q9NZQ7 19-290): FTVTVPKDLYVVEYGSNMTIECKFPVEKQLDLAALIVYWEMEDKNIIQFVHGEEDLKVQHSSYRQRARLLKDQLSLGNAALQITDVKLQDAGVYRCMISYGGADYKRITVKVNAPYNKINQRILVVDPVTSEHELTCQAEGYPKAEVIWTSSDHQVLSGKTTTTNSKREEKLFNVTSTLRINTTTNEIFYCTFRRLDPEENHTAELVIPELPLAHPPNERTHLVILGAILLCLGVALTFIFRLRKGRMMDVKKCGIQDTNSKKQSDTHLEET
Description: as §1, §2, §3, §4

CD28 [2] = target: T1, CD28; assay: Jurkat/IL2 + CHO/OKT3 +/- PD-L1 reporter assay: PD-L1-dependent CD28 costimulation; format: cell-based; design: host or cells: Jurkat cells expressing an IL-2-luciferase reporter; details: Jurkat/IL2 + CHO/OKT3/PD-L1
Description: Jurkat cells were then plated at 50 μL/well for a total of 100,000 cells per well.
To each well, 25 μL of test protein was added to the Jurkat cells. […] The Jurkat cells with test or control proteins were incubated for 15 minutes at room temperature. CHO-derived artificial antigen presenting cells (aAPC) displaying transduced cell surface anti-CD3 single chain Fv (OKT3) (i.e., no PD-L1), or OKT3 and PD-L1 (i.e., +PD-L1), were brought to 0.8×10^6 cells/mL, and 25 μL of cells were added to each well, bringing the final volume of each well to 100 μL. […] Jurkat cells and CHO cells were incubated for 5 hours at 37 degrees Celsius in a humidified 5% CO2 incubation chamber. Plates were then removed from the incubator and acclimated to room temperature for 15 minutes. 100 μL of a cell lysis and luciferase substrate solution (BioGlo luciferase reagent, Promega) were added to each well and the plates were incubated on an orbital shaker for 10 minutes. Luminescence was measured with a 1 second per well integration time using a BioTek Cytation luminometer, and a relative luminescence value (RLU) was determined for each test sample.

[3] = Table E23, CD80 IgV-Fc (inert) at 33.3 nM
[4] = Table E23, CD80 IgV-Fc (inert) at 33.3 nM, Jurkat (CD28)
[5] = Table E20, Jurkats (CD28), 33.3 nM

Substance | CTLA4 MFI at 33.3 nM (huCTLA4; [3]) | CTLA4 Fold change to WT CD80 (huCTLA4; Table E23) | CD28 MFI at 33.3 nM (CD28 [1]; [4]) | CD28 Fold change to WT CD80 (CD28 [1]; Table E23) | PD-L1 MFI at 33.3 nM (huPD-L1; [3]) | PD-L1 Fold change to WT CD80 (huPD-L1; Table E23) | Ratio of PDL1:CD28 (huPD-L1; Table E23) | Fold Increase over WT CD80-IgV-Fe (CD28 [2]; Table E24, 5.0 nM) | Relative Luciferase Units (RLU), CD80 Conc 5.0 nM (CD28 [2]; Table E24, 5.0 nM) [RLU] | CTLA4 MFI at 33.3 nM (huCTLA4; Table E20, 33.3 nM) | CTLA4 Fold change to WT CD80 (huCTLA4; Table E20) [fold] | CD28 MFI at 33.3 nM (CD28 [1]; [5]) | CD28 Fold change to WT CD80 (CD28 [1]; Table E20) [fold] | PD-L1 MFI at 33.3 nM (huPD-L1; Table E20, 33.3 nM) | PD-L1 Fold change to WT CD80 (huPD-L1; Table E20) [fold] | Ratio of PDL1:CD28 (huPD-L1; Table E20) | Fold Increase over WT CD80-IgV-Fe (CD28 [2]; Table E22, 5.0 nM) [fold] | Relative Luciferase Units (RLU), CD80 Conc 5.0 nM (CD28 [2]; Table E22, CD80 Conc 5.0 nM) [RLU]
H18Y/A26Q/E35D/M47T/V68M/A71G/D90G | 16652 | 12.0 | 6733 | 66.0 | 24450 | 148.2 | 3.6 | 5.8 | 994 |  |  |  |  |  |  |  |  | 
H18Y/A26E/E35D/M47L/A71G |  |  |  |  |  |  |  |  |  | 19353 | 14.2 | 379 | 8.6 | 16887 | 387.3 | 44.6 | 2.42 | 944
H18Y/A26E/E35D/M47L/V68M/D90G |  |  |  |  |  |  |  |  |  | 24855 | 18.3 | 2675 | 60.9 | 25217 | 578.4 | 9.4 | 2.29 | 893
H18Y/E35D/M47L/V68M/A71G |  |  |  |  |  |  |  |  |  | 23667 | 17.4 | 928 | 21.1 | 30377 | 696.7 | 32.7 | 2.19 | 853
H18Y/E35D/M47V/V68M/A71G/D90G | 17165 | 12.4 | 6792 | 66.6 | 52151 | 316.1 | 7.7 | 4.8 | 825 |  |  |  |  |  |  |  |  | 
H18Y/A26E/E35D/V68M/A71G/D90G |  |  |  |  |  |  |  |  |  | 23386 | 17.2 | 1757 | 40.0 | 28683 | 657.9 | 16.3 | 2.41 | 940
H18A/A26P/E35D/M47L/V68M/A71G/D90G | 23763 | 17.2 | 4731 | 46.4 | 33436 | 202.6 | 7.1 | 5.0 | 857 |  |  |  |  |  |  |  |  | 
H18Y/A26E/E35D/A71G/D90G |  |  |  |  |  |  |  |  |  | −100 | −0.1 | 1075 | 24.5 | 14822 | 340.0 | 13.8 | 2.45 | 956
H18Y/A26E/E35D/V68M/D90G |  |  |  |  |  |  |  |  |  | 19331 | 14.2 | 2584 | 58.9 | 23206 | 532.2 | 9.0 | 2.69 | 1049
H18Y/A26E/M47L/V68M/A71G/D90G |  |  |  |  |  |  |  |  |  | 121 | 0.1 | 2556 | 58.2 | 31716 | 727.4 | 12.4 | 2.19 | 853
H18V/A26S/E35D/M47L/V68M/A71G/D90G | 24919 | 18.0 | 8063 | 79.0 | 73884 | 447.8 | 9.2 | 5.2 | 883 |  |  |  |  |  |  |  |  | 
H18Y/A26E/M47L/V68M/D90G |  |  |  |  |  |  |  |  |  | 28649 | 21.1 | 32 | 0.7 | 23594 | 541.1 | 737.3 | 2.76 | 1075
H18A/A26N/E35D/M47L/V68M/A71G/D90G | 21360 | 15.4 | 4913 | 48.2 | 36284 | 219.9 | 7.4 | 6.2 | 1054 |  |  |  |  |  |  |  |  | 
